Experimental data reported in the DeepSol protein solubility set.

Experiment: soluble on expression in E. coli; label from the status in PepcDB or PDB records
For “MSRHWPLFDLRITTPRLQLQLPTEELCDQLIDTILEGVHDPDRMPFSVPWTRASREDLPFNTLSHLWQQLAGFKRDDWSLPLAVLVDGRAVGVQALSSKDFPITRQVDSGSWLGLRYQGHGYGTEMRAAVLYFAFAELEAQVATSRSFVDNPASIAVSRRNGYRDNGLDRVAREGAMAEALLFRLTRDDWQRHRTVEVRVDGFDRCRPLFGPLEPPRY”, the “soluble on expression in E. coli” value was “soluble”. In the case of “MSRKNILQGLMAGTPSPAPAAAERPRATKGAIGAVSRSIADLKARAVIEVDPFLIDAGGLQDRLESDAAEDAELARSIATYGQQVPVLVRPHPTDENRFQIVYGRRRVLALRDLGQPVKALVRDLDDREAVLAQGQENTARRDLSFIEKVNFARQMADAGYDRKAICDALSVDKTLISRMVSVSERVPVALIEAIGAASGIGRDRWLALAELMEKTDDDLDTLISTMSLTAEGQGSDQRFEALFSYLSGQRRREPPAPLRTEPITGHDGRPLGDVSRGAASVVLRLRRSHAKGFEEWLLQNLPDLHRSWQSDRNGK”, the “soluble on expression in E. coli” value was “not soluble”. In the case of “MSRKNISLTESLEEYIFRNSVREPDSFLKLRKETGTLAQANMQISPEEGQFLNILTKISGAKRIIEIGTFTGYSSLCFASALPEDGKILCCDVSEEWTNVARKYWKENGLENKIFLKLGSALETLQVLIDSKSAPSWASDFAFGPSSIDLFFLDADKENYPNYYPLILKLLKPGGLLIADNVLWDGSVADLSHQEPSTVGIRKFNELVYNDSLVDVSLVPIADGVSLVRKRLEHHHHHH”, the “soluble on expression in E. coli” value was “soluble”. For “MSRLLSGGVGVIFAVLFSVNVGNARDQIQITGSSTVLPYQKIVAEIFGEIYPHFKIPVIESGGTGGGIKEFCRGIGENAIDIVNASRAMKLSELQSCFDAGVKDVEEIRIGYDGIVFATDINGPDWKLQPVDIYRALAARIMKDGKLQSNNVSKWSAVNSALPGWTIAAYIPGEKH”, the “soluble on expression in E. coli” value was “not soluble”. For “MSRNQNHEEYQDDTRPLSIEEQRARLRQLIIMGKERGYITYSEINDALPDDMSDADQIDNIVSMISGLGIQVTEHAPDAEDILLSDNAAVTDDDAVEEAEAALSSADSEFGRTTDPVRMYMREMGQVDLLTREDEIIIAKKIENALKNMVQAISACPGSIAEILELIEKIRKDEIRVDEVVEAIIDPNEVLLNELGLGHLETTAPEKPSNDNSDENEDDEESEEDADEISAANLAELKQKVIGHFAQIEKDYKKMIGRLEKHHSRHKDYLAYRDAIANKLLEVRFATRQIDSLSSSLRGKVENIRKLEREIRDICLDRVHMERDYFIQNFLPEITNLEWIEEEIAKGRVWSDALDRFRHAILEKQTELADMEKETRISIEELKEINKNMVSSEKETAAAKQEMIQANLRLVISIAKKYTNRGLQFLDLIQEGNIGLMKAVDKFEYRRGYKFSTYATWWIRQAITRSIADQARTIRIPVHMIETINKMNRISRQHLQETGEEPDSAKLAELMQMPEDKIRKIMKIAKEPISMETPIGDDDDSHLGDFIEDANNVAPADAAMYTSLHEVTKEILESLTPREAKVLRMRFGIDMNTDHTLEEVGRQFDVTRERIRQIEAKALRKLRHPTRSDRLRSFLDSEDSKL”, the “soluble on expression in E. coli” value was “soluble”. In the case of “MSRQDPRTIEFLESVGKGEIPPSLVQQYPGKEIDFKVNRHHEEYVAPKMKPFGGSGVRLGNVVPTVLGQSSSSATTAGTSSATTDHNPDHTAENEAKQLEDAKKELSTNMNEPTTNIQIRLPNNQRLVGIFNHSHTLEAVRTFICTARPDMIYAPFQMMAAYPPKPFEDESQTLKDANVLNSVVAVKILPTTN”, the “soluble on expression in E. coli” value was “not soluble”. With “MSRRGLEREGGKPVSSDAKGLKRVDVRLKWDPSPWDRPPHHLDIIATTYAADAPHGRPVYVVQFDKRSPDGTINMSRHSRTGQGFGFVEEMTFELDRLSPSIARVIVGVAIHQDNGHKTFDDVSNTGVVVAEGYRELLTDGFERVAGATAATVAEFTRNASGAWEFREAVRGFDSDPVLFATEMGSAPRP” the “soluble on expression in E. coli” value was “soluble”. In the case of “MSRVERLPNGLVVALEERDFPGVAFQLLVPAGAVNDPEGMEGAAALLEGWLWKGAGDLDARALAQALDALGVRRSSGAGLEYTAFAAAFLPEVLDEVFRLYALLLTRPRLPEEGLEAVGHVALQALLSLEDQPARKLLSELRRKVFRSPHGREPLGREEGLKGARAEALKADYRRRYTPKGAILAVAGGVSWERLRAALEPFLAWEGEEALYPAPELSEPHRFVLRRPTAQVQIGLAYPDVGPEDPGFYAARLALEVLSGGMSSRLFTEVREKRGLVYAVSAFPAGVKGQGLLMAYAGTTKERAGETLEVLRAEVERLAEGVTEEELFRAKVGLKTALVMADESIRSRAASMARDLYMLGRVRSLSEIEAAIEGTSLEAVNAFLRAHPYRDPWVGLLGEVEDV”, the “soluble on expression in E. coli” value was “soluble”. In the case of “MSSCVNTSQTGPKKKISFIIRDEHEYSNRSAVSALQYDAQNGRLFTGGSDTIIRTWSVPHHKDAFSARGGVRSPGKNSPVQYQGSLEQHTDWVNDMILCGHGKILISASNDTTVKVWNIERDNKHGFIDCIRTHKDYVSCLAYAPIVEKAVSASFDHNIFVYDINANFKTVNNLIGCKDSIYSLATTPNLSLVLGAGTEKCIRLFDPRTNEKIMKLRGHTDNVRALVVNDDGTRALSAGSDATIRLWDIGQQRCIATCIAHEEGVWTLQVDSSFTTVYSAGKDKMVVKTPLYDFTKSQLLFKEEAPVKKLLLSEKDNPVSLWVGTWKSDIKRWSIRPSAQLSIGGDEDGPSTSNANHSVSASSSPPVTFKYIRVKDQKGQQSTPELVIPGAPAIKKHAMLSDKRHVLTRDSDGNVALYDVLAARKIKDYGKRIFEEVVDENSRQVYIPSWFVVDSKSGMLQITLDELDALSSWLSSKDAGFDDNDRETKLNYGGMMLRSLFERWPPCKMTNVDAADADDVQKATLNFISLPEHTPLIICEGNGRPLYRLLVGDAGKEFEANELAQIAPMWVIDAIERNQLPKFNKMPFYLLPHPSTNPKQPKKDRLSATEMLQVKKVMEHVYEKILSTNDDITVGSIPLNQIHTKMEMYCNDQRLEPDMDLRTVKHLYWKQSGELLLHYKPVK”, the “soluble on expression in E. coli” value was “not soluble”. For “MSSFSESALEKKLSELSNSQHSVQTLSLWLIHHRKHAGPIVSVWHRELRKAKSNRKLTFLYLANDVIQNSKRKGPEFTREFESVLVDAFSHVAREADEGCKKPLERLLNIWQERSVYGGEFIQQLKLSMEDSKSPPPKATEEKKSLKRTFQQIQEEEDDDYPGSYSPQDPSAGPLLTEELIKALQDLENAASGDATVRQKIASLPQEVQDVSLLEKITDKEAAERLSKTVDEACLLLAEYNGRLAAELEDRRQLARMLVEYTQNQKDVLSEKEKKLEEYKQKLARVTQVRKELKSHIQSLPDLSLLPNVTGGLAPLPSAGDLFSTD”, the “soluble on expression in E. coli” value was “soluble”. For “MSSGDQNRGGVADKALQLVLEMKRNPDVLPPYNTELVRQCYQKIDELFQKNAAVVEKIRAGLPHDSTLLQPRLAAMCHIRRCMMAYVNERKNRIRSFRWKYGGALPASVRNALCDAEIQFFNEYSSTLARFQSNLGEGGVNLLLHSAPPKSLFVQVRALEDYGEFETSDGTQVQLSKDSLHSLPRQDCEMLIRQGVLELVH”, the “soluble on expression in E. coli” value was “not soluble”. With “MSSGNRQAPMPPPKPRNLGRGQFYQQGGYLTPQDSDTDSGISADCDQGSPRAAAGFGGTGFNGTVNGQQVNSQRRIPDLPPGAYQNYRSHSSADYLTPNSARKIASYSTTPRRLPLQPQQQAPATATKAKYRVRFADEVDSGASTSSGTSSTHISPRNDPQEMLMNSAVGAPQITSTFQQPASYMQNSSDAQYKMNKIEYPPVSRTPPVACSSRTGTLQRTPNRRLPISSTPQPQPTYADQMQSLPEPPPYTIAMQRLRSVEQQPQESFRDAFIRKSVNDTLQRRYRQRSSSLPRGNKSYYEGIDIYDAQPPIRPLPQQQTSLMTVANQLPGSLDNLHINNLNMRRRKLPTAPLMGSSCQLHLDNSDELTAYRALQFQMMQDELQRQQPPPQSFERPTLLRRTNMPQQQSFNIPHITTTGPPPPAMGLSVPVQYDQGEYGTQSVRAQLVALDQRGFRRVLVEKMMPGPFGFYIATGVVAGQRAGIFISRVSLPSLSPMLTVGDEIIYVDEEYVKGRSLEYVQSLRIFEFQTELITEEPPHKQVIFM” the “soluble on expression in E. coli” value was “not soluble”. For “MSSIASNTFTKTVESVPVDIKYDSDKYFISGYSYDAEVYLTATTQLALTTETTSDTRHFKLVADLSNFGPGTSHVPIQVKNLPDGMSAQVSPSTLTATIGKKASKTFDVVANITPDKLANGYEVKKVSLDETKVEVTSSEDIINQIDHVQAVLEGDDNLSDDYDGNLVLQAVSSNGTILASSISPAKVHAKISLRKLSKSVPVKLELTGDKASNVSSISYSFDRGHVTIVGSQEAMDKIDSITVPVDISQVTEDTSKTLELKAEGVTVQPSTVKVNLKVTQKLEHHHHHH”, the “soluble on expression in E. coli” value was “soluble”. With “MSSINITNVTVLDNPAPFVNPFQFEISYECLTSLKDDLEWKLIYVGSAEDETYDQVLESVLVGPVNVGNYRFVLQADSPDPLKIREEDIIGVTVLLLTCSYMDQEFIRVGYYVNNDYDDEQLREEPPTKVLIDKVQRNILTDKPRVTKFPINFHPENEQTLGDGPAPTEPFADSVVNGEAPVFLEQPQKLQEIEQFDDSDVNGEAIALLDQPQNLQET” the “soluble on expression in E. coli” value was “soluble”. For “MSSIVEHVVLFKLNDDDVDSGKINSMVNGINELVNLDQVLHLYCGSIHRLITTTASDFTHVLHSRYRSKEDLNAYAIHPDHVRVVKESESIREDIMAVDWIAEQAPE”, the “soluble on expression in E. coli” value was “not soluble”. In the case of “MSSLNKLAIDQLNLAGKRVLIRVDFNVPLKDGKITNNQRIAAAVPTIQHALSNGAKSVVLMSHLGRPDGRRQDKYTLKPVAEELKALLKKDVLFLDDCVGSEVEAACADPAPGSVILLENLRYHLEEEGKGVDASGAKVKADSAAVKKFRESLTKLGDIYVNDAFGTAHRAHSSMVGVEHSQRASGFLLKNELSYFSKALDNPARPFLAILGGAKVADKIQLIKNLLDKVNEMIIGGGMAYTFLKVAQGVKIGNSLYDEEGAKIVNELLEAAKAKGVQIHLPVDFVIADKFAEDATSKTVTAEEGVPDGHMGLDVGPESSKIFAAAIQRAKTIVWNGPAGVFEFDKFATGTKSLMDEVVKATAAGAITIIGGGDTATAAKKYNTEDKVSHVSTGGGASLELLEGKVLPGVDALSPAQ”, the “soluble on expression in E. coli” value was “soluble”. For “MSSNDVLAQIAGLAKAAAELENDFSTDSEMQQDSEICDEVDAELFDDFETKPSSRKESSGTSRRTRMAHRELQGLQFANPGDEMSRFLPDSVDIISTNRSKRVAAEKQADLRDEPLHHDKTGKLSVTAKGQTLFFDLCDCLVVECDGCHWPCKQCKSRKCLIGCRQNRKEMVIRVEEMYTVTEAPGPVVNINPYFPGQIKD”, the “soluble on expression in E. coli” value was “not soluble”. In the case of “MSSPKVGFVSLGRPKALVDSERILTQLRTEGYEVTPEYNDADVVVVNTCGFIDSAKAESLEAIGEAIAENGKVIVTGCMGVEESVIRQVHPSVLAVTGPQQYEEVVRAVHGVAPPRQDHNPYLDLVPPQGVKLTPRHYAYLKISEGCNHRCSFCIIPSMRGDLVSRPVGDVLSEAERLVRAGVKELLVISQDTSAYGVDIKYRSGFWNGRPVKTRMTELCAALSELGVWTRLHYVYPYPHVDEVIGLMADGKVLPYLDIPFQHASPRILRAMKRPAFEDKTLARIKRWREECPDLTLRSTFIVGFPGETEEDFQYLLDWMSEAQLDRVGCFQYSPVEGAPANTLDNPVPDEVKQERWERFMEHQQAISTARLSTRVGREIDVLIDSVDEEGAVGRSSADAPEIDGCVYVDSEQPLKAGDMVRVRVTDSDEYDLWGERIALEHHHHHH”, the “soluble on expression in E. coli” value was “soluble”. With “MSSQKSSHHKADSKMEQDNNRKAWISQPSGLNFVWGGDSRYWVIPKEPRMPAELKMVSWLEVTGSFDKIEPGKTYRIGFKISFKPDATGWDKAPVFMSAKIGKKGKTVWKRIKSVSQNFGILKGGSEPVNIPDESDGLFEILVSPTALNQDTKLQFGLYEVWTGRWKTGLLIHEAFVQEV” the “soluble on expression in E. coli” value was “soluble”.
